This data set has as its system MS2 coat protein. Nature of the data set: apparent KD of MS2 coat protein; designed switch direction (-1 OFF switch, 1 ON switch): -1; higher = weaker reporter binding. The essentials: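 RNA switches sharing common flanks were transcribed by stalled E. coli RNA polymerase on Illumina chips. A doubling series of SNAP-549-labelled MS2 coat protein, from 0.7 or 1.5 nM to 3 µM, was applied in Tris-HCl pH 7.5 buffer with KCl, MgCl2, BSA, DTT, tRNA and Tween-20. Each step lasted 0.8–1.5 h at the bottom of the series and 10–20 min at the top. Normalised cluster fluorescence was curve-fitted, giving apparent KD as the per-design median over clusters.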

Where [1] appears, read: Eterna round: R95, input ligand: FMN 200 uM.
[2] abbreviates: Eterna round: R95, input ligand: microRNA oligo, concentration not stated.
[3] abbreviates: Eterna round: R95, input ligand: none.
Setting [4] is: input ligand: microRNA oligo, concentration not stated.

Take “UCAGGAGCAGGAUAUGCAAUCGUGCUUCGGCACGUAAGGUCACAUGAGGAUCACCCAUGUAGAAGGGCUCCUGA [E2/4-D2] (Eterna round: R97, puzzle: Exclusion 2)”: the “apparent KD of MS2 coat protein” value was determined as 38.4 nM (input ligand: FMN 200 uM) and 18.4 nM (input ligand: none).

In the case of “UCAGGUGCAGGAUAUACAUGAGGAUCACCCAUGUGAUUAGCAGUCCUCGGACUGCAAUGUAGAAGGGCACCUGA [E3/2-D2] (Eterna round: R97, puzzle: Exclusion 3)”, the “apparent KD of MS2 coat protein” value by setting is: (input ligand: FMN 200 uM) 763 nM; (input ligand: none) 346 nM.

As for “UCAUACGAUGAGGAUAUCUCAGUUAAAGUAUUUAGAGAAGGCGUUACAUGAGGAUCACCCAUGUUUGUGGGCAG [Ex-6 Malc#8] (puzzle: Exclusion 6)”, the “apparent KD of MS2 coat protein” value runs as follows: under setting [1], 99.1 nM; under setting [2], 93.9 nM; under setting [3], 136 nM.

For “UCAUACGAUGAGGAUAUCUCCGUUAAAGUAUGUAGAGAAGGCGUUACAUGAGGAUCACCCAUGUUUGUGGGCAG [Ex-6 Malc#9] (Eterna round: R96, puzzle: Exclusion 6)”, under setting [4], the “apparent KD of MS2 coat protein” value turned out to be 250 nM.

Consider “UCAUACGAUGAGGAUAUCUCCGUUAAAGUAUGUAGAGAAGGCGUUACAUGAGGAUCACCCAUGUUUGUGGGCAG [Ex-6 Malc#9] (puzzle: Exclusion 6)”, for which the “apparent KD of MS2 coat protein” value is, setting by setting: under setting [1], 223 nM; under setting [2], 217 nM; under setting [3], 190 nM.

For “UCAUAGUGAGGAUAUCGGUCCCUGACAAAUAGUUGGGUUAUUGAGAAGGCACAUGAGGAUCACCCAUGUGUCCG [EX4 C.5] (Eterna round: R97, puzzle: Exclusion 4)”, the “apparent KD of MS2 coat protein” value is 19.7 nM (input ligand: FMN 200 uM) and 13.5 nM (input ligand: none).

For the sequence “UCAUGUAUGUAGGAUAUCGAUGUCUUCGGACAUCGAGAAGGACGUACAUGAGGAUCACCCAUGUAACUUGCAUG [Exclusion 6 - B - 11:b] (puzzle: Exclusion 6)”, the “apparent KD of MS2 coat protein” value under setting [2] was 14.8 nM.

Consider “UCCAAGACAGGAUAUCUAGAGCCAAACAUGAGGAUCACCCAUGUGAAUCUCAGCAAACGCAGAGAAGGGUCAAAAU [Orisinxe] (puzzle: Exclusion 5)”, for which the “apparent KD of MS2 coat protein” value reads like this: under setting [1], 30.1 nM; under setting [2], 23.2 nM; under setting [3], 30.9 nM.

Consider “UCCACACAUGAGGAUCACCCAUGUCAGGAUAUCUUUAGGGACUAUGGUUAUUCCUAAUAGAGAAGGGACAUAUU [EX1 B.27] (Eterna round: R97, puzzle: Exclusion 1)”, for which the “apparent KD of MS2 coat protein” value worked out at 152 nM (input ligand: FMN 200 uM) and 37.1 nM (input ligand: none).

In the case of “UCCAGACAUGAGGAUCACCCAUGUGAGGAUAUGAUGCGAUCGUCGAAAGACGAUAGCAUCAGAAGGCACGUAUG [Fiskers Ex 1 - 15] (puzzle: Exclusion 1)”, the “apparent KD of MS2 coat protein” value under setting [2] came to 32.6 nM.

“UCCAUGUCAGGAUAUCUAAAGGUCCGAAAUAACGGUACUGCAGAGAAGGGACAUGAGGAUCACCCAUGUCCUCC [Exclusion 4 (Mod2 of Nando's EX4 C.22)] (Eterna round: R97, puzzle: Exclusion 4)”: the “apparent KD of MS2 coat protein” value came to 20.3 nM (input ligand: FMN 200 uM) and 16 nM (input ligand: none).

In the case of “UCCCUGUCAGGAUAUACAUGAGGAUCACCCAUGUCUCUCCGACACGGGAAAAGGAACUGUAGAAGGGACAGGAU [Xezaeseris] (puzzle: Exclusion 3)”, the “apparent KD of MS2 coat protein” value is, setting by setting: under setting [1], 19.6 nM; under setting [2], 12.3 nM; under setting [3], 15.2 nM.

For “UCCUCACAUGAGGAUCACCCAUGUCAGGAUAUCCAGUUGGGCCUCUGUAGAGGCGCCAGGAGAAGGGAUAAGGA [Ceenerso] (Eterna round: R97, puzzle: Exclusion 1)”, the “apparent KD of MS2 coat protein” value by setting is: (input ligand: FMN 200 uM) 35.9 nM; (input ligand: none) 22.3 nM.

Turning to “UCCUGACAUGAGGAUCACCCAUGUAAGGAUAUCAGCCACCCAGCAAAAGCUGGGCAAGUGAGAAGGUACACGGG [EX1 A.30] (Eterna round: R97, puzzle: Exclusion 1)”, the “apparent KD of MS2 coat protein” value is 157 nM (input ligand: FMN 200 uM) and 30.6 nM (input ligand: none).

Regarding “UCCUUACUGGUCAGGAUAUACAGUCGCGGGUGGGUGUAGAAGGGACAUGAGGAUCACCCAUGUACGUUACAGCC [alecazam54i] (Eterna round: R97, puzzle: Brourd's mod of Exclusion 4)”, the “apparent KD of MS2 coat protein” value reads like this: (input ligand: FMN 200 uM) 27.6 nM; (input ligand: none) 30.2 nM.

Take “UCGAAAUCUAACAAGCCAUACAUGAGGAUCACCCAUGUGUUCGUCAUAGCGAUCCGACAUGAUGCUCGUCGAAAUAC [Eternabot (L2) Solution 48] (Eterna round: R97, puzzle: Sensor, turn-off variant 1)”: the “apparent KD of MS2 coat protein” value reads like this: (input ligand: FMN 200 uM) 448 nM; (input ligand: none) 745 nM.

Take “UCGCGCCUAGGAUAUAUAAGGACUUUCUAGUAUGUUGCGAAACAUGAGGAUCACCCAUGUAGAAGGAGGUAGUG [Eternabot (L2) Solution 89] (Eterna round: R97, puzzle: Exclusion 2)”: the “apparent KD of MS2 coat protein” value runs as follows: (input ligand: FMN 200 uM) 222 nM; (input ligand: none) 77.3 nM.

As for “UCGCUCCGUGUAGGAUAUCGUUGUACCCUGCGGCGAGAAGGACAUGAGGAUCACCCAUGUAUGUUAUUAUCACGCGUGGCGCAC [Design 70] (Eterna round: R96, puzzle: Exclusion NG 1)”, the “apparent KD of MS2 coat protein” value is, setting by setting: (input ligand: FMN 200 uM) 15.4 nM; under setting [4], 15.5 nM; (input ligand: none) 21.6 nM.

As for “UCGCUGCGAGGAUAUACAUGAGGAUCACCCAUGUACGGGUCCGGGUCUUAGUUGAUUGGUAGAAGGCGCAGUGA [JL Laongeedie mod 11] (puzzle: Exclusion 3)”, the “apparent KD of MS2 coat protein” value under setting [2] amounted to 84.7 nM.

In the case of “UCGGCGCGAGGAUAUACGUUUGCGCGUUUUCGUUUGCGCGUACAUGAGGAUCACCCAUGUAGAAGGCGCGCGGC [Apr-15 SS2-13] (puzzle: Exclusion 2)”, the “apparent KD of MS2 coat protein” value under setting [2] was found to be 11.5 nM.

For “UCGGCGCGAGGAUAUGCGGCUGGUGCUUCGGGCCCUGGCGUACAUGAGGAUCACCCAUGUAGAAGGCGCGCCGC [Apr-15 SS2-41] (puzzle: Exclusion 2)”, under setting [2], the “apparent KD of MS2 coat protein” value turned out to be 10.2 nM.

Consider “UCGGCGCGAGGAUAUGCGGUUUGUGCUUUGGGCCCUGGCGUACAUGAGGAUCACCCAUGUAGAAGGCGCGCCGC [Apr-15 SS2-47] (puzzle: Exclusion 2)”, for which the “apparent KD of MS2 coat protein” value under setting [2] was found to be 15.9 nM.

“UCGUGGUUACGCUGCAGUUGCCUGAGCGGAGGCUCUGUGACAUGAGGAUCACCCAUGUAGCUUUUUGCUCAUCUUAA [JR_SV3TOV2_Sub040] (puzzle: Sensor v3, turn-off variant 2)”: the “apparent KD of MS2 coat protein” value was 25.2 nM under setting [1], 39.9 nM under setting [2] and 24.6 nM under setting [3].

As for “UCGUUUCGUGUAGGAUAUUGGCCUGCUCUGGGUCGAGAAGGACAUGAGGAUCACCCAUGUAUGUUAUUAUCACGCGUGGCGCAU [Design 82] (Eterna round: R96, puzzle: Exclusion NG 1)”, the “apparent KD of MS2 coat protein” value is 124 nM (input ligand: FMN 200 uM), 34 nM under setting [4] and 36.6 nM (input ligand: none).

“UCUACGUCAGGAUAUACAAGCGGUGCUCUGAUGCUGUCCAGACAUGAGGAUCACCCAUGUAGAAGGGACGACAA [Eternabot (L1) Solution 68] (Eterna round: R97, puzzle: Exclusion 2)”: the “apparent KD of MS2 coat protein” value (input ligand: FMN 200 uM) stood at 42.6 nM and the “apparent KD of MS2 coat protein” value (input ligand: none) worked out at 365 nM.

Regarding “UCUCAGUCAGGAUAUCGUUAAUUUAAUUGUUUGUAUUAGUUCGAGAAGGGACAUGAGGAUCACCCAUGUACUCU [Ex4 #18] (Eterna round: R97, puzzle: Exclusion 4)”, the “apparent KD of MS2 coat protein” value reads like this: (input ligand: FMN 200 uM) 29.8 nM; (input ligand: none) 18.8 nM.

As for “UCUCUUGGGCAAGGAUAUCCUGCGCGGUUCCGGUUCGUGUCUGUCACAUGAGGAUCACCCAUGUGGGAGAAGGUGCCUGCGGUC [Design 77] (Eterna round: R96, puzzle: Exclusion NG 2)”, the “apparent KD of MS2 coat protein” value (input ligand: FMN 200 uM) was found to be 24.5 nM, the “apparent KD of MS2 coat protein” value under setting [4] is 12 nM and the “apparent KD of MS2 coat protein” value (input ligand: none) is 16.7 nM.

Turning to “UCUUAACAUGAGGAUCACCCAUGUGAGGAUAUGAUGCAGCAGUGGUCUACGCUGUGCAUCAGAAGGUACAUGGG (puzzle: Exclusion 1)”, the “apparent KD of MS2 coat protein” value under setting [2] turned out to be 26.8 nM.

Regarding “UCUUACUGAGGAUAUACUUAGAUUUACAUGAGGAUCACCCAUGUUCCUCUAUGUAUAUAUGUAGAAGGCAGAAGAU [Mat - Exclusion 5 - JL Mod - D47] (Eterna round: R97, puzzle: Exclusion 5)”, the “apparent KD of MS2 coat protein” value is 292 nM (input ligand: FMN 200 uM) and 35.6 nM (input ligand: none).

Consider “UCUUAUUGCAAGGAUAUGCAAAUUAUUAUUAAUGCAGAAGGUGCUACAUGAGGAUCACCCAUGUUUCCGGGUUU [JR_E6_Sub042] (puzzle: Exclusion 6)”, for which the “apparent KD of MS2 coat protein” value under setting [2] is 43.3 nM.

In the case of “UCUUCACAUGAGGAUCACCCAUGUGAGGAUAUGGUUUCGCUGGCCGUAGCCAGUGGAACCAGAAGGCGCGUGAU [Mat - Exclusion 1 - JL Mod - D23] (Eterna round: R97, puzzle: Exclusion 1)”, the “apparent KD of MS2 coat protein” value was found to be 89.6 nM (input ligand: FMN 200 uM) and 73.5 nM (input ligand: none).

As to “UCUUGUUGUCCGUGAGAAUACAUGAGGAUCACCCAUGUUAGUUUGAUUAUGAUGUGUAAGUUUGUUGCUCGUUUUAU [JR_STOV1_Sub070] (Eterna round: R97, puzzle: Sensor, turn-off variant 1)”, the “apparent KD of MS2 coat protein” value by setting is: (input ligand: FMN 200 uM) 36.4 nM; (input ligand: none) 41.3 nM.

As to “UGACAGGAGUAGGAUAUGCCCACCGUCCGACUGGCAGAAGGACUCACAUGAGGAUCACCCAUGUAGUUAUGUAC [Eternabot (L2) Solution 96] (Eterna round: R97, puzzle: Exclusion 6)”, the “apparent KD of MS2 coat protein” value is, setting by setting: (input ligand: FMN 200 uM) 20.1 nM; (input ligand: none) 16 nM.

For the origin of these results see the supplement of paper PMC9170038.
